Columns and labels:
trypsin = biological target: T1, trypsin (Bos taurus, UniProt P00760); experiment: Trypsin Inhibition Assay; format: biochemical
T1 sequence (P00760 24-246): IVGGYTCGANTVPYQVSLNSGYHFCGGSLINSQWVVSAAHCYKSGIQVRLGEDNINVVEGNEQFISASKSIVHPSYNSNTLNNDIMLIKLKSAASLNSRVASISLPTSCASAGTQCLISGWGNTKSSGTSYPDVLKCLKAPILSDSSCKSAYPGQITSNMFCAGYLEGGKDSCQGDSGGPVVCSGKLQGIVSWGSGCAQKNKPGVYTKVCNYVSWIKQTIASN
Method: FIG. 5. Trypsin Inhibition Assay.
Unless indicated otherwise, anti-trypsin activity referred to herein is measured using trypsin having an activity of 10,000 BAEE units per mg. of trypsin, and is expressed in mg. of trypsin inhibited per mg. of protein being tested. BAEE refers to Na-Benzoyl-L-Arginine Ethyl Ester Solution (see the directions for Sigma-Aldrich Product No. B4500). For example, in a typical assay, one unit corresponds to the amount of inhibitor that reduces the trypsin activity by one benzoyl-L-arginine ethyl ester unit (BAEE-U). One BAEE-U is the amount of enzyme that increases the absorbance at 253 nm by 0.001 per minute at pH 7.6 and 25° C. See, for example, K. Ozawa, M. Laskowski, 1966, J. Biol. Chem. 241:3955; and Y. Birk, 1976, Meth. Enzymol. 45:700.
(§1) Protease inhibitor enzymatic activity was verified for the recombinant product, and demonstrable inhibition of chymotrypsin activity was achieved (FIG. 4) as well as inhibition of trypsin activity (FIG. 5).

chymotrypsin = chymotrypsin (Bos taurus, UniProt P00766); experiment: Chymotrypsin Inhibition Assay; format: biochemical
Method: FIG. 4. Chymotrypsin Inhibition Assay.
Unless indicated otherwise, anti-chymotrypsin activity referred to herein is measured using chymotrypsin having an activity of 40 BTEE units per mg. of chymotrypsin, and is expressed in mg. of chymotrypsin inhibited per mg. of protein being tested. BTEE refers to N-Benzoyl-L-Tyrosine Ethyl Ester (see the directions for Sigma-Aldrich Product No. B6125).
as §1

B1: rBBI: recombinant Bowman-Birk type proteinase inhibitor, codon-optimized (SEQ ID NO: 1), secreted from Pichia pastoris GS115, clone B17 (protein, listed as Pichia pastoris)
chain: DDESSKPCCDQCACTKSNPPQCRCSDMRLNSCHSACKSCICALSYPAQCFCVDITDFCYEPCKPSEDDKEN
inhibition of trypsin activity compared to purified SBTI purified from soya (trypsin; FIG. 5, result in words): far greater inhibition of enzymatic activity | trypsin inhibited by 1 mg inhibitor (trypsin; FIG. 5, trypsin of 10,000 BAEE units per mg): 1.7 mg trypsin inhibited by 1 mg inhibitor | inhibition of chymotrypsin activity compared to purified SBTI purified from soya (chymotrypsin; FIG. 4, result in words): far greater inhibition of enzymatic activity | chymotrypsin inhibited by 1 mg inhibitor (chymotrypsin; FIG. 4, chymotrypsin of 40 BTEE units per mg): 2.3 mg chymotrypsin inhibited by 1 mg inhibitor

— patent US20210244806A1, “Recombinant Protease Inhibitor-Containing Compositions, Methods for Producing Same and Uses Thereof” (ORAMED LTD., priority 2018, published 2021)
